In this assay the target is apolipoprotein E, apoE4 isoform, of human cerebrospinal fluid (human (endogenous in CSF)) (UniProt P02649). Kind of assay: native gel or EMSA; blue-native PAGE 4-16% of unheated AD CSF; western blot with AB178479; dimer/monomer quotient from band intensities.

Turning to “apolipoprotein E, apoE4 isoform, of human cerebrospinal fluid (from UniProt P02649 19-317) (natural protein)”, the ratio D/M (apoE dimer/monomer quotient) was 0.24.

(Values after paper PMC9628034.)
